# Data: US6359194 (Takeda / Millennium, dated 2002)
# B1: GAL4 transcriptional activation domain-rchd534 fusion (other, human, UniProt O43541-2 1-235, looked up, not shown: large carriers)
# chain: MSRMGKPIETQKSPPPPYSRLSPRDEYKPLDLSDSTLSYTETEATNSLITAPGEFSDASMSPDATKPSHWCSVAYWEHRTRVGRLYAVYDQAVSIFYDLPQGSGFCLGQLNLEQRSESVRRTRSKIGFGILLSKEPDGVWAYNRGEHPIFVNSPTLDAPGGRALVVRKVPPGYSIKVFDFERSGLQHAPEPDAADGPYDPNSVRISFAKGWGPCYSRQFITSCPCWLEILLNNPR
# notes: Yeast two-hybrid fish; also called rchd534 fish protein; Smad6
# B2: GAL4 DNA-binding domain fusion to Drosophila MAD (other, UniProt P04386 1-147, looked up)
# chain: MKLLSSIEQACDICRLKKLKCSKEKPKCAKCLKNNWECRYSPKTKRSPLTRAHLTEVESRLERLEQLFLLIFPREDLDMILKMDSLQDIKALLTGLFVQDNVNKDAVTDRLASVETDMPLTLRQHRISATSSSEESSNKGQRQLTVSMDTDDVESNTSSAMSTLGSLFSFTSPAVKKLLGWKQGDEEEKWAEKAVDSLVKKLKKRKGAIEELERALSCPGQPSKCVTIPRSLDGRLQVSHRKGLPHVIYCRVWRWPDLQSHHELKPLELCQYPFSAKQKEVCINPYHYKRVESPVLPPVLVPRHSEFAPGHSMLQFNHVAEPSMPHNVSYSNSGFNSHSLSTSNTSVGSPSSVNSNPNSPYDSLAGTPPPAYSPSEDGNSNNPNDGGQLLDAQMGDVAQVSYSEPAFWASIAYYELNCRVGEVFHCNNNSVIVDGFTNPSNNSDRCCLGQLSNVNRNSTIENTRRHIGKGVHLYYVTGEVYAECLSDSAIFVQSRNCNYHHGFHPSTVCKIPPGCSLKIFNNQEFAQLLSQSVNNGFEAVYELTKMCTIRMSFVKGWGAEYHRQDVTSTPCWIEIHLHGPLQWLDKVLTQMGSPHNAISSVS
# notes: Yeast two-hybrid bait; also called Dros; MAD; MAD bait protein
# B3: GAL4 DNA-binding domain-fchd540 fusion (other, UniProt P04386 1-147, looked up)
# chain: MKLLSSIEQACDICRLKKLKCSKEKPKCAKCLKNNWECRYSPKTKRSPLTRAHLTEVESRLERLEQLFLLIFPREDLDMILKMDSLQDIKALLTGLFVQDNVNKDAVTDRLASVETDMPLTLRQHRISATSSSEESSNKGQRQLTVSMFRTKRSALVRRLWRSRAPGGEDEEEGAGGGGGGGELRGEGATDSRAHGAGGGGPGRAGCCLGKAVRGAKGHHHPHPPAAGAGAAGGAEADLKALTHSVLKKLKERQLELLLQAVESRGGTRTACLLLPGRLDCRLGPGAPAGAQPAQPPSSYSLPLLLCKVFRWPDLRHSSEVKRLCCCESYGKINPELVCCNPHHLSRLCELESPPPPYSRYPMDFLKPTADCPDAVPSSAETGGTNYLAPGGLSDSQLLLEPGDRSHWCVVAYWEEKTRVGRLYCVQEPSLDIFYDLPQGNGFCLGQLNSDNKSQLVQKVRSKIGCGIQLTREVDGVWVYNRSSYPIFIKSATLDNPDSRTLLVHKVFPGFSIKAFDYEKAYSLQRPNDHEFMQQPWTGFTVQISFVKGWGQCYTRQFISSCPCWLEVIFNSR
# notes: Yeast two-hybrid bait; also called fchd540 bait protein; pGBT9-fchd540
# B4: GAL4 activation domain fusion to SV40 (other)
# chain: PTYGTDEWEQWWNAFNEENLFCSEEMPSSDDEATADSQHSTPPKKKRKVEDPKDFPSELLSFLSHAVFSNRTLACFAIYTTKEKAALLYKKIMEKYSVTFISRHNSYNHNILFFLTPHRHRVSAINNYAQKLCTFSFLICKGVNKEYLMYSALTRDPFSVIEESLPGGLKEHDFNPEEAEETKQVSWKLVTEYAMETKCDDVLLLLGMYLEFQYSFEMCLKCIKKEQPSHYKYHEKHYANAAIFADSKNQKTICQQAVDTVLAKKRVDSLQLTREQMLTNRFNDLLDRMDIMFGSTGSADIEEWMAGVAWLHCLLPKMDSVVYDFLKCMVYNIPKKRYWLFKGPIDSGKTTLAAALLELCGGKALNVNLPLDRLNFELGVAIDQFLVVFEDVKGTGGESRDLPSGQGINNLDNLRDYLDGSVKVNLEKKHLNKRTQIFPPGIVTMNEYSVPKTLQARFVKQIDFRPKDYLKHCLERSEFLLEKRIIQSGIALLLMLIWYRPVAEFAQSIQSRIVEWKERLDKEFSLSVYQKMKFNVAMGIGVLDWLRNSDDDDEDSQENADKNEDGGEKNMEDSGHETGIDSQSQGSFQAPQSSQSVHDHNQPYHICRGFTCFKKPPTPPPEPET
# notes: Two-hybrid control
# Experiments:
# Experiment in all cases: yeast two-hybrid mating assay (HIS3 and lacZ reporters)
# [1] = molecular target: B2
# Description: (§1) Yeast expression plasmids encoding the GAL4 DNA-binding domain either alone or fused in frame to fchd540, rchd534, Drosophilia MAD, DPC4, or p53 were transformed into MATa two-hybrid screening strain HF7c. Yeast expression plasmnids encoding the GAL4 transcriptional activation domain alone and GAL4 activation domain fusions to rchd534 and SV40 were transformed into MATα two-hybrid screening strain Y1 87. p53 and SV40 interact with each other and should not interact with the experimental proteins. The HF7c transformants were propagated as stripes on semisolid synthetic complete medium lacking L-tryptophan and the Y187 transformants were grown as stripes on semisolid synthetic complete medium lacking L-leucine. Both sets of stripes were replica plated in the form of a grid onto a single rich YPAD plate and the haploid strains of opposite mating types were allowed to mate overnight at 30° C. The yeast strains on the mating plate were then replica plated to a synthetic complete plate lacking L-leucine and L-tryptophan to select for diploids and incubated at 30° C. overnight. Diploid strains on the synthetic complete plate lacking L-leucine and L-tryptophan were replica plated to a synthetic complete plate lacking L-leucine, L-tryptophan, and L-histidine to assay HIS3 expression and a paper filter on a synthetic complete plate lacking L-leucine and L-tryptophan. The next day the paper filter was subjected to the paper filter beta-galactosidase assay to measure expression of the lacZ reporter gene. HIS3 expression was scored after 3 days of growth at 30° C.
# (§2) It was confirmed that these rchd534 cDNAs encode proteins that physically interact specifically with fchd540. Yeast expression plasmids encoding the GAL4 DNA-binding domain either alone or fused in frame to fchd540, rchd534, Drosophila MAD, DPC4, and p53 were transformed into MATa two-hybrid screening strain HF7c. Yeast expression plasmids encoding the GAL4 transcriptional activation domain (GAL4 AD) alone and GAL4 activation domain fusions to tchv03a, tchvR4A and SV40 were transformed into MATα two-hybrid screening strain Y1 87. p53 and SV40 interact with each other and should not interact with the experimental proteins. The HF7c transformants were propagated as stripes on semi-solid synthetic complete medium lacking […].
# [2] = molecular target: T1, GAL4 DNA-binding domain fusion to DPC4 (UniProt P04386 1-147; Q13485 1-552, limits assumed)
# T1 construct: Yeast two-hybrid bait; also called DPC4 bait protein
# Description: as §1, §2
# [3] = molecular target: B4
# Description: as §1, §2
Binder,binding result [1],binding result [2],binding result [3]
B1,no binding,no binding,–
B2,–,–,no binding
B3,–,–,no binding
B4,–,no binding,–
